Data set [1] addresses T1, α-Lactoalbumin, bovine milk, P00711.
T1 chain: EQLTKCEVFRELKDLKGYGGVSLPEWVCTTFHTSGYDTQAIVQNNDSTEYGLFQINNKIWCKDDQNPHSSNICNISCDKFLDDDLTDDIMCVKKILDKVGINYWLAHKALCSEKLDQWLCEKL

Data set [2] addresses T2, Myoglobin, horse skeletal muscle, P68082.
T2 chain: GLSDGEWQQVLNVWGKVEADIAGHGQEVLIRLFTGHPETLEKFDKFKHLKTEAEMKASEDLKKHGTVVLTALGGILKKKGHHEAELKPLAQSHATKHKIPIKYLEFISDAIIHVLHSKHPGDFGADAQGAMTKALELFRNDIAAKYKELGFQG

The target of data set [3] is Collagen, Type I, bovine Achilles tendon, P02453.
Collagen, Type I, bovine Achilles tendon, P02453, sequence (P02453 162-1217, chain 1 of 2): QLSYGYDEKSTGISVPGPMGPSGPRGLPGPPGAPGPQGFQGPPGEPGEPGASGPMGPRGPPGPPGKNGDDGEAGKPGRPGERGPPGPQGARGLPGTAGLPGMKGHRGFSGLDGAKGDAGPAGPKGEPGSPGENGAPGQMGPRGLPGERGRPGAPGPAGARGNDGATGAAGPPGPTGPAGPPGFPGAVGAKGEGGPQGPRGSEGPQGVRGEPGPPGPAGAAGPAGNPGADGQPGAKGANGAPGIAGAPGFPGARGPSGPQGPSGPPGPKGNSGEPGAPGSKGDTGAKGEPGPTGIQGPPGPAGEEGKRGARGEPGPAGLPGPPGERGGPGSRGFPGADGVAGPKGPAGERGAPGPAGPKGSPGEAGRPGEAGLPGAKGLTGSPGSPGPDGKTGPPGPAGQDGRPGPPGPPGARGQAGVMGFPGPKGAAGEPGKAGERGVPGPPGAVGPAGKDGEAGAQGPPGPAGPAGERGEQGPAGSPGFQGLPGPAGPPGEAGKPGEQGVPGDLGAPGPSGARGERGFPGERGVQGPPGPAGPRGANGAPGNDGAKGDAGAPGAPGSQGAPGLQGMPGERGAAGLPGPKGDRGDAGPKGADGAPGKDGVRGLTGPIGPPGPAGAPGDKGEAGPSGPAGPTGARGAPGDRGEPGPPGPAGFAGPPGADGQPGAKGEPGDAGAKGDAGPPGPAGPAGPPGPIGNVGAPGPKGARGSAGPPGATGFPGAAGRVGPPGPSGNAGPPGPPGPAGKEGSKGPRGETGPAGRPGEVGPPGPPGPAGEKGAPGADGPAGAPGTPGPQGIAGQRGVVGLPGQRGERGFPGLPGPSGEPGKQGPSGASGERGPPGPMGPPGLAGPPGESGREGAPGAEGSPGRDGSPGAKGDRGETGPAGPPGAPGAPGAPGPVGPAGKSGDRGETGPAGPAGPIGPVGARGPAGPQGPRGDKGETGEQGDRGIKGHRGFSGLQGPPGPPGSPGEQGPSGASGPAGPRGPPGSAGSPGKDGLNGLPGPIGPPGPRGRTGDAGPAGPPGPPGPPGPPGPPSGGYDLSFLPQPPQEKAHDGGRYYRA
Collagen, Type I, bovine Achilles tendon, P02453, sequence (P02453 other isoform, or with tags, fused parts or gaps, chain 2 of 2): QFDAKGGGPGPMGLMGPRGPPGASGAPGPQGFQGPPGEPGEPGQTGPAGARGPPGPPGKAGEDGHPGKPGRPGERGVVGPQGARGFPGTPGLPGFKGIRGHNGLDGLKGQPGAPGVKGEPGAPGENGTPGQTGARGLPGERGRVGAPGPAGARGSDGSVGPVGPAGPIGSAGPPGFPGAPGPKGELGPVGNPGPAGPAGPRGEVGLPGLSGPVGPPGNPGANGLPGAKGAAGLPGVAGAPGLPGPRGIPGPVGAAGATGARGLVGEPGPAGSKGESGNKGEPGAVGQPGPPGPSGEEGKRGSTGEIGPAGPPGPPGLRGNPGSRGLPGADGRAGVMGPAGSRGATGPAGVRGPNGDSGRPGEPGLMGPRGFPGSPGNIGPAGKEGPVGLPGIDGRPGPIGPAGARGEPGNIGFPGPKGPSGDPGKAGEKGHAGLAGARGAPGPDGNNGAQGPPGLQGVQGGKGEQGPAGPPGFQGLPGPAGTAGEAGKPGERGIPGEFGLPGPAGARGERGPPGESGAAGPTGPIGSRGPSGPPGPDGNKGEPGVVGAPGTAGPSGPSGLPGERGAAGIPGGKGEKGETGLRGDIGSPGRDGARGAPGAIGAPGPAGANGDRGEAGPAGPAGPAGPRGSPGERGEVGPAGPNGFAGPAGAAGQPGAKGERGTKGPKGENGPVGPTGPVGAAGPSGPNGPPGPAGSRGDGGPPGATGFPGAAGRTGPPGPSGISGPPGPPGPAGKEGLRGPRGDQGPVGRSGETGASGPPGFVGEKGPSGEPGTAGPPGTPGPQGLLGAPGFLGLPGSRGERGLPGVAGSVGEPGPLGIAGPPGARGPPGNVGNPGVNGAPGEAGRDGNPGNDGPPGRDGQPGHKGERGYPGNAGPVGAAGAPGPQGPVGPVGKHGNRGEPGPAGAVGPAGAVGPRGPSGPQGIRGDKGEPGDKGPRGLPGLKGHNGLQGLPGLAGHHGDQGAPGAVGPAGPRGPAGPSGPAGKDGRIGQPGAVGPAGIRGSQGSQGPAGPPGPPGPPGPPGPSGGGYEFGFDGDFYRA
In data set [4] the target is Bovine serum albumin, bovine, P02769.
Bovine serum albumin, bovine, P02769, sequence (P02769 25-607): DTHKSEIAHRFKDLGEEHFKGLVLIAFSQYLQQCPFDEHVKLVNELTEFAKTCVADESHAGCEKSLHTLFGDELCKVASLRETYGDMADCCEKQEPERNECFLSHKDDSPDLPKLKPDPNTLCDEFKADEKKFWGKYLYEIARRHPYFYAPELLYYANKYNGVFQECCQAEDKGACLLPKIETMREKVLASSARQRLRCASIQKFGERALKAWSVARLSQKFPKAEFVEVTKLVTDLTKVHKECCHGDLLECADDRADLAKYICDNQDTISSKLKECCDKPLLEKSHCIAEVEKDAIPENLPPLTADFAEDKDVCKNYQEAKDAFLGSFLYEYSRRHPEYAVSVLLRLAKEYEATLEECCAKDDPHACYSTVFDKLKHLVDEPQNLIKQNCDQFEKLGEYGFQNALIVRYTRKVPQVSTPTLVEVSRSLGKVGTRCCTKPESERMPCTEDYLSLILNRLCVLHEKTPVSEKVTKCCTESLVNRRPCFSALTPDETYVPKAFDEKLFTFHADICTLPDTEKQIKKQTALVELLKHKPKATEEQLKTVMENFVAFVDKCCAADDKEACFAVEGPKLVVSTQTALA
For data set [5], the target named is T3, Ovalbumin, chichen egg, P01012.
T3 chain: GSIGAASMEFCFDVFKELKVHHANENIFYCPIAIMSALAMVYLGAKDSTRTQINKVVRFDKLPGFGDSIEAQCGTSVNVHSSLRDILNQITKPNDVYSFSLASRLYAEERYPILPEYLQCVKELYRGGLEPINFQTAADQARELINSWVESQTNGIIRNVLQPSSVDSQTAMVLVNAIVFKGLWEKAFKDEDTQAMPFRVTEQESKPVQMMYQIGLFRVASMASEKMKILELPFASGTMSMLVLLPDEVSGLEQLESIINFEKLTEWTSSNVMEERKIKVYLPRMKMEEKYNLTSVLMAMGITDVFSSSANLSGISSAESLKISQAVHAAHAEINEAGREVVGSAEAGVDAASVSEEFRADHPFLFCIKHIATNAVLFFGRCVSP

For data set [6], the target named is α-Chymotrypsinogen A, bovine pancreas, P00766.
Data set [7] deals with T4, RNase A, bovine pancreas, P61823.
T4 chain: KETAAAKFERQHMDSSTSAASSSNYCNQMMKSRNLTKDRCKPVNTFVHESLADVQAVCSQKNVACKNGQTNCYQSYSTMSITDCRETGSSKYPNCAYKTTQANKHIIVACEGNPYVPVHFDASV

Data set [8] deals with T5, β-Lactoglobulin, bovine milk, P02754.
T5 chain: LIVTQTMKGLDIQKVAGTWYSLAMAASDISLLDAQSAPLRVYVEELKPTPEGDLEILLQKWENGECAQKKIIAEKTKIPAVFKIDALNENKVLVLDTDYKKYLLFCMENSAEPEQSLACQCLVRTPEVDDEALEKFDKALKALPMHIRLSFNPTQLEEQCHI

Data set [9] addresses Muscle acetone powder, chicken breast.
Data set [10] concerns the target Aprotinin, bovine lung, P00974.
Data set [11] has as its target Gelatin, Type B, bovine skin.
The target in data set [12] is T6, β-Casein, bovine milk, P02666.
T6 chain: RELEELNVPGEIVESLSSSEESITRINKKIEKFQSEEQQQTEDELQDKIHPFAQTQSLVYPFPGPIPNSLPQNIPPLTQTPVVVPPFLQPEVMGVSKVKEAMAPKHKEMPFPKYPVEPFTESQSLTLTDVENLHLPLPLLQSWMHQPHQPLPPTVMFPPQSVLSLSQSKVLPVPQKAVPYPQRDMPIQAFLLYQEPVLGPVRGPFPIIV

The target of data set [13] is Actin, bovine muscle, P68138.

B1: protein-deamidating enzyme purified from Chryseobacterium sp. No. 9670 (protein)
chain: LASVIPDVATLNSLFNQIKNQSCGTSTASSPCITFRYPVDGCYARAHKMRQILMNNGYDCEKQFVYGNLKASTGTCCVAWSYHVAILVSYKNASGVTEKRIIDPSLFSSGPVTDTAWRNACVNTSCGSASVSSYANTAGNVYYRSPSNSYLYDNNLINTNCVLTKFSLLSGCSPSPAPDVSSCGF
As to B1, the Ammonia releasing rate in [1] was 0.836 µmol/min/mg; with Soy protein isolate, 1.17 µmol/min/mg; in data set [2], 0.014 µmol/min/mg; in data set [3], 0.177 µmol/min/mg; in data set [4] it was 0.009 µmol/min/mg; in [5] it was 0.005 µmol/min/mg. Besides, the Ammonia releasing rate stood at 0.65 µmol/min/mg in data set [6]; 2.91 µmol/min/mg in data set [7]; 19.1 µmol/min/mg with α-Casein, bovine milk; 5.47 µmol/min/mg in the data set with Gliadin, what (wheat); 0.655 µmol/min/mg with Zein, corn; 0.728 µmol/min/mg in data set [8]. For the same protein, the Ammonia releasing rate in [9] was found to be 0.21 µmol/min/mg; in data set [10], 0.224 µmol/min/mg; with Gluten, wheat it was 7.2 µmol/min/mg; in data set [11], 0.696 µmol/min/mg; in data set [12], 18.1 µmol/min/mg; in data set [13] it was 0.45 µmol/min/mg. The deamidation ratio with milk caseinate amounted to 60% in caseinate; with whey protein it was 23% in whey protein; with albumen protein it was 7% in albumen protein; with soybean protein, 20% in soybean protein; with Gluten, wheat, 74% in wheat gluten.
